Measured values: article doi:10.1101/2021.04.26.440876, “Fluoxetine targets an allosteric site in the enterovirus 2C AAA+ ATPase and stabilizes the hexameric complex” (bioRxiv, 2021)

Target: the molecule itself
Assay: SEC; size exclusion chromatography gel filtration profile of the MBP-tagged full-length preparation (Figure S9)

B1: MBP-tagged full-length CV-B3 2C (natural protein)
chain: NNSWLKKFTEMTNACKGMEWIAVKIQKFIEWLKVKILPEVREKHEFLNRLKQLPLLESQIATIEQSAPSQSDQEQLFSNVQYFAHYCRKYAPLYAAEAKRVFSLEKKMSNYIQFKSKCRIEPVCLLLHGSPGAGKSVATNLIGRSLAEKLNSSVYSLPPDPDHFDGYKQQAVVIMDDLCQNPDGKDVSLFCQMVSSVDFVPPMAALEEKGILFTSPFVLASTNAGSINAPTVSDSRALARRFHFDMNIEVISMYSQNGKINMPMSVKTCDDECCPVNFKKCCPLVCGKAIQFIDRRTQVRYSLDMLVTEMFREYNHRHSVGTTLEALFQ
notes: coxsackievirus B3 non-structural protein 2C (cut product of the polyprotein), full length (329 residues by the printed limits of the other constructs); source: purified
B1: binds.
